The target in series [1] is T1, catalytic core of human ATL1 WT / N417ins (Homo sapiens, UniProt Q8WXF7).
T1 construct: catalytic core (G + middle domains), WT residues 1-449 (N417ins 1-450), C-terminal His10 tag kept, E. coli BL21(DE3)
T1 sequence (Q8WXF7 1-449): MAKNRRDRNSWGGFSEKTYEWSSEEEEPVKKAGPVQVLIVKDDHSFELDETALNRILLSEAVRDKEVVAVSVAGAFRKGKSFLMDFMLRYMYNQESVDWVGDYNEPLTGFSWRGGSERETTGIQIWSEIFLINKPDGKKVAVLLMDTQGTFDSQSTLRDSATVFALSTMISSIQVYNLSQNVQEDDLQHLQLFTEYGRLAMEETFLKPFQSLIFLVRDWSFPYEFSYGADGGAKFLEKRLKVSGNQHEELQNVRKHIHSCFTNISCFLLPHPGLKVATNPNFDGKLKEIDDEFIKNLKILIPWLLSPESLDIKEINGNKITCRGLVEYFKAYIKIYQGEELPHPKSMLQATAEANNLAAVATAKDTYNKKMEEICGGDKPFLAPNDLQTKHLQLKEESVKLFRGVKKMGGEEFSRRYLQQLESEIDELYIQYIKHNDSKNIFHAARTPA
Description: limited proteolysis (proteinase K) protection. The class given is binding. The following applies: 2 mM GDP; MgCl2, pH 7.5; on ice.

The target in series [2] is T2, catalytic core of human ATL1 WT / N417ins (Homo sapiens, UniProt Q8WXF7).
T2 construct: catalytic core (G + middle domains), WT residues 1-449 (N417ins 1-450), C-terminal His10 tag kept, E. coli BL21(DE3)
T2 sequence (Q8WXF7 with tags, fused parts or gaps INS416N): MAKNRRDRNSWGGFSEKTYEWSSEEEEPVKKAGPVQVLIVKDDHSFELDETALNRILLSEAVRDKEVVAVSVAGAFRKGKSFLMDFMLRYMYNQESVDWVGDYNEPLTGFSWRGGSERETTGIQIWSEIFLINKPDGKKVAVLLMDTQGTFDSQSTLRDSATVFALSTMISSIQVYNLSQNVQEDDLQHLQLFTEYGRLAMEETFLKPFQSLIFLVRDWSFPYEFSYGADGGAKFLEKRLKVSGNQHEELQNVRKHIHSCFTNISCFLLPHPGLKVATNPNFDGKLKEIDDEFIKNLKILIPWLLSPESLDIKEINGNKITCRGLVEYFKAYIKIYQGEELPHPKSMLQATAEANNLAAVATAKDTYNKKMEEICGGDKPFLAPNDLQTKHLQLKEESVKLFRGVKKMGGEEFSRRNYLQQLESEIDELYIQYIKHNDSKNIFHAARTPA
Description: SEC-MALS, nucleotide-dependent dimerization. The following applies: 2 mM GppNHp; 4 mM MgCl2, pH 7.5; 50 μM protein. The class given is binding. (SEC sorts molecules by how far they enter the pores of the column.)

In series [3] the target is T1, catalytic core of human ATL1 WT / N417ins. The series is described as follows: SEC-MALS, nucleotide-dependent dimerization. The class given is binding. The following applies: 2 mM GppNHp; 4 mM MgCl2, pH 7.5; 50 μM protein. The source holds these as a separate data set.
Series [4] has as its target ATL1 N417ins catalytic core, G domain FRET construct. Description: intermolecular FRET (G domain FRET). The conditions noted are these: equilibrated for 1 h before measurement, read off a plot.
In series [5] the target is ATL1 N417ins catalytic core C375A K400C, labelled on the middle domain with AlexaFluor-488 or AlexaFluor-647. Description: intermolecular FRET (middle domain FRET). The conditions noted are these: equilibrated for 1 h before measurement, read off a plot.
Series [6] deals with the molecule itself. The series is described as follows: SEC-MALS; 50 μM protein loaded, preincubated with 2 mM GppNHp; Superdex Increase 200 10/300 GL; 25 mM Tris-HCl pH 7.5, 100 mM NaCl, 2 mM EGTA, 4 mM MgCl2.
[7] abbreviates: apo (no nucleotide), parent: est. 0.0083.

The results in this text go back to PMC8688574 (The Journal of Biological Chemistry, 2021).

Turning to `Nc1nc2c(ncn2[C@@H]2O[C@H](COP(=O)(O)OP(=O)(O)O)[C@@H](O)[C@H]2O)c(=O)[nH]1` [GDP], the “limited proteolysis (proteinase K) protection” value in series [1] was “when bound to GDP, the WT protein is largely protected from degradation”. For the molecule `Nc1nc2c(ncn2[C@@H]2O[C@H](COP(=O)(O)OP(=O)(O)NP(=O)(O)O)[C@@H](O)[C@H]2O)c(=O)[nH]1` [GppNHp], the “SEC-MALS, nucleotide-dependent dimerization” value in series [2] was “Only a minor fraction of the mutant protein eluted as a monomer upon incubation with GppNHp”; in series [3], “dimerized in the presence of GppNHp and GDP•AlF4^−”. With “ATL1 WT catalytic core, G domain FRET construct N417ins”, the response was 0.011 in series [4] (GDP, parent: est. 0.014); 0.078 in series [4] (GDP•AlF4-, parent: est. 0.076); 0.009 in series [4] (setting [7]). On to “ATL1 WT catalytic core, middle domain FRET construct N417ins”, for which the response in series [5] (GDP, parent: est. 0.0098) was 0.011; in series [5] (GDP•AlF4-, parent: est. 0.061) it was 0.066; in series [5] (setting [7]), 0.009.

B1: human ATL1 WT catalytic core (residues 1–449) (domain or fragment, UniProt Q8WXF7-1 1-449, looked up)
chain: T1 sequence (Q8WXF7 1-449)
notes: atlastin-1 (ATL1/SPG3A), human, catalytic core of G and middle domains, residues 1-449; pET21 vector; Monomer without nucleotide or with GDP, dimer with GppNHp or GDP•AlF4-; Theoretical monomer mass 52.8 kDa; also called atlastin-1; SPG3A; source: E. coli BL21(DE3), purified (Ni-NTA, desalting, S200 gel filtration); not shown: His10, C-terminal, kept
As a reminder, the stoichiometry N is the number of molecules, sites or subunits per partner or assembly. Take B1: the “stoichiometry N” value in series [6] was found to be 2.

B2: human ATL1 N417ins catalytic core (residues 1–450) (domain or fragment, UniProt Q8WXF7-1 1-450, looked up)
chain: MAKNRRDRNSWGGFSEKTYEWSSEEEEPVKKAGPVQVLIVKDDHSFELDETALNRILLSEAVRDKEVVAVSVAGAFRKGKSFLMDFMLRYMYNQESVDWVGDYNEPLTGFSWRGGSERETTGIQIWSEIFLINKPDGKKVAVLLMDTQGTFDSQSTLRDSATVFALSTMISSIQVYNLSQNVQEDDLQHLQLFTEYGRLAMEETFLKPFQSLIFLVRDWSFPYEFSYGADGGAKFLEKRLKVSGNQHEELQNVRKHIHSCFTNISCFLLPHPGLKVATNPNFDGKLKEIDDEFIKNLKILIPWLLSPESLDIKEINGNKITCRGLVEYFKAYIKIYQGEELPHPKSMLQATAEANNLAAVATAKDTYNKKMEEICGGDKPFLAPNDLQTKHLQLKEESVKLFRGVKKMGGEEFSRRNYLQQLESEIDELYIQYIKHNDSKNIFHAARTPAT
notes: atlastin-1 (ATL1/SPG3A), human, catalytic core with the patient's in-frame insertion of an asparagine between R416 and Y417; residues 1-450. numbers count on: the mutant protein with the extra residue (1-449 of the wild type plus N417); pET21 vector; construct for enzyme assays, SEC-MALS and tethering; Theoretical monomer mass 52.9 kDa; also called N417ins mutant protein; …
In the case of B2, in series [6], the “stoichiometry N” value was determined as 2.
